This note sets out measurements from patent US20250034212A1, “PEPTIDE” (PEPTIDREAM INC., priority 2021, published 2025).

B1: TGFb1_009 (peptide)
peptide: {CH2CO}-F[1Nal]VVNV[4Pal]DD[Gly(NCH2CH2Ph)]V[1Nal][4Pal]HVCG
modifications: thioether N-16; not fully specified (C-terminus)
notes: cyclic peptide; C-terminal G is a linker
B2: TGFb1_008 (peptide)
peptide: {CH2CO}-F[Trp(7-aza)]VVNV[4Pal]DD[Gly(NCH2CH2Ph)]V[1Nal]YHVCG
modifications: thioether N-16; not fully specified (C-terminus)
notes: as for B1
B3: TGFb1_010 (peptide)
peptide: {CH2CO}-F[1Nal]V[KCOpipzaa]NV[4Pal]DD[Gly(NCH2CH2Ph)]V[1Nal]YHVCG
modifications: thioether N-16; not fully specified (C-terminus)
notes: as for B1
B4: TGFb1_001 (peptide)
peptide: {CH2CO}-F[1Nal]VVNVYDD[Gly(NCH2CH2Ph)]V[1Nal]YHVCG
modifications: thioether N-16
notes: as for B1
B5: TGFb1_004 (peptide)
peptide: {CH2CO}-F[Trp(6-aza)]VVNVYDD[Gly(NCH2CH2Ph)]V[1Nal]YHVCG
modifications: thioether N-16
notes: as for B1
B6: TGFb1_005 (peptide)
peptide: {CH2CO}-F[Trp(7-aza)]VVNVYDD[Gly(NCH2CH2Ph)]V[1Nal]YHVCG
modifications: thioether N-16; not fully specified (C-terminus)
notes: as for B1
B7: TGFb1_007 (peptide)
peptide: {CH2CO}-F[1Nal]VKNV[4Pal]DD[Gly(NCH2CH2Ph)]V[1Nal]YHVCG
modifications: thioether N-16; not fully specified (C-terminus)
notes: as for B1

The Kd is a measure of binding affinity in units of concentration.

Starred links: 1 amine or outer side, 2 acyl side, 3 side chain; linkers in the order of their positions; H or OH if unused. Positions of bridges follow the written chain, without caps; N, C: chain ends. Non-standard residues stand in square brackets, D forms with d. No end group written: not given here. *: point of attachment. HA‑tag = HA-tag attached to the G end of the C-terminal linker, CC(C)[C@H](NC(=O)[C@H](CC(=O)O)NC(=O)[C@H](Cc1ccc(O)cc1)NC(=O)[C@@H]1CCCN1C(=O)[C@H](Cc1ccc(O)cc1)N*)C(=O)N1CCC[C@H]1C(=O)N[C@@H](CC(=O)O)C(=O)N[C@@H](Cc1ccc(O)cc1)C(=O)N[C@@H](C)C(=O)O; KCOpipzaa = N6-(4-(carboxymethyl)piperazine-1-carbonyl)-L-lysine, O=C(NCCCC[C@H](N[*:1])C(=O)[*:2])N1CCN(CC(=O)[*:3])CC1; Phe(3-guanidino) = 3-[(aminoiminomethyl)amino]-L-phenylalanine, N=C(N)Nc1cccc(C[C@H](N[*:1])C(=O)[*:2])c1; Phe(4-guanidino) = N=C(N)Nc1ccc(C[C@H](N)C(=O)O)cc1; Trp(6-aza) = N[C@@H](Cc1c[nH]c2cnccc12)C(=O)O; Trp(7-aza) = N[C@@H](Cc1c[nH]c2ncccc12)C(=O)O; 1Nal = N[C@@H](Cc1cccc2ccccc12)C(=O)O; Gly(NCH2CH2Ph) = O=C(O)CNCCc1ccccc1; 4Pal = N[C@@H](Cc1ccncc1)C(=O)O

For the first test, the target named is T1, recombinant human TGF-β1 (R&D systems) (human, UniProt P01137 279-390). The test can be described thus: cell-based or functional assay.
T1 sequence (P01137 279-390 limits assumed): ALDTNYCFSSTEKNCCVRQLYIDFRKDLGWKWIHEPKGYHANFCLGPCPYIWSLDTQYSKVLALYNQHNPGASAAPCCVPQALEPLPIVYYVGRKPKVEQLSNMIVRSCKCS
Conditions: not given
With B1, the “SBE reporter % inhibition, peptide 0.075 nM” value was determined as 2.7%; the “SBE reporter % inhibition, peptide 0.75 nM” value turned out to be 53%; the “SBE reporter % inhibition, peptide 7.5 nM” value was determined as 94.8%; the “SBE reporter % inhibition, peptide 75.0 nM” value amounted to 99.6%.

On to B2, for which the “SBE reporter % inhibition, peptide 0.075 nM” value came out at 3.8%; the “SBE reporter % inhibition, peptide 0.75 nM” value stood at 56.8%; the “SBE reporter % inhibition, peptide 7.5 nM” value was 94.6%; the “SBE reporter % inhibition, peptide 75.0 nM” value came to 98.4%.

As to B3, the “SBE reporter % inhibition, peptide 0.075 nM” value came out at 2%; the “SBE reporter % inhibition, peptide 0.75 nM” value turned out to be 63.8%; the “SBE reporter % inhibition, peptide 7.5 nM” value was 97.9%; the “SBE reporter % inhibition, peptide 75.0 nM” value is 99.9%.

With B4, the “SBE reporter % inhibition, peptide 0.075 nM” value is 19.7%; the “SBE reporter % inhibition, peptide 0.75 nM” value came to 69.7%; the “SBE reporter % inhibition, peptide 7.5 nM” value was 98.1%; the “SBE reporter % inhibition, peptide 75.0 nM” value came to 101%.

On to B5, for which the “SBE reporter % inhibition, peptide 0.075 nM” value came to 0%; the “SBE reporter % inhibition, peptide 0.75 nM” value is 0.9%; the “SBE reporter % inhibition, peptide 7.5 nM” value was found to be 70.1%; the “SBE reporter % inhibition, peptide 75.0 nM” value amounted to 94.9%.

As for B6, the “SBE reporter % inhibition, peptide 0.075 nM” value was 0.4%; the “SBE reporter % inhibition, peptide 0.75 nM” value stood at 47%; the “SBE reporter % inhibition, peptide 7.5 nM” value stood at 90.8%; the “SBE reporter % inhibition, peptide 75.0 nM” value was determined as 98.9%.

With B7, the “SBE reporter % inhibition, peptide 0.075 nM” value is 0.1%; the “SBE reporter % inhibition, peptide 0.75 nM” value worked out at 37.5%; the “SBE reporter % inhibition, peptide 7.5 nM” value stood at 83.5%; the “SBE reporter % inhibition, peptide 75.0 nM” value came out at 96.7%.

For the next test, the target named is T2, recombinant human TGF-β1 (Homo sapiens, UniProt P01137).
T2 construct: purchased R&D systems
T2 sequence (P01137 279-390 limits assumed): as above
The test can be described thus: ELISA of HA-tagged peptides with TGF-β1 beads. Type of test: binding. To be noted: ELISA; relative to TGFb1_061 (SEQ ID NO: 62) set to 100%; HA-tag attached. An excerpt: In this Example, ELISA was used to evaluate the binding between TGF-β1 and each of various peptides consisting of the amino acid sequences set forth in SEQ ID NOs: 34-69 synthesized in Examples 6 and 7. An HA-tag was attached to the G end of the C-terminal linker of the peptide consisting of the amino acid sequence set forth in SEQ ID NOs: 34-69. As used herein, the “HA-tag” means the amino acid sequence of PEG10[…] (SEQ ID NO: 70).
The binding activity of each peptide to TGF-β1 was examined by ELISA using the peptide consisting of the amino acid sequence set forth in SEQ ID NOs: 34-69 having an HA-tag attached and TGF-β1 beads.
Recombinant human TGF-β1 (R&D Systems) was immobilized on Dynabead M-270 Carboxylic Acid (Thermo fisher scientific) to prepare TGF-β1 beads. The immobilization reaction was performed using the Amine Coupling kit (DOJINDO LABORATORIES).
TGF-β1 beads and each peptide having the HA-tag sequence attached at the C-terminus were reacted in PBS (PBS-T) containing 0.1% Tween 20 (NACALAI TESQUE, INC.) for 1 hour and then washed by PBS-T. To detect the peptide bound to the TGF-β1 beads, an anti-HA-tag mAb-HRP-DirecT (MBL) and the TGF-β1 beads were reacted in PBS-T containing 1% BSA for 30 min. After washing with PBST, a SureBlue TMB Microwell Peroxidase Substrate (Kirkegaard & Perry Laboratories) was added for coloration for 10 min. TMB stop solution (Kirkegaard & Perry Laboratories) was then added to stop the coloration reaction. An EnSpire (Perkin Elmer) was used to measure absorbance.
Note that the binding activity was expressed as a relative value when the ability of binding the peptide TGFb1_061 (SEQ ID NO: 62) to TGF-β1 was set to 100%.
(In general: ELISA stands for enzyme-linked immunosorbent assay.)
Consider “TGFb1_061: cyclic peptide of Table 4 with G linker and HA-tag; ELISA reference set to 100% ({CH2CO}-F[1Nal]VVNVYDD[Gly(NCH2CH2Ph)]V[1Nal]YHVCG-{HA‑tag}; thioether N-16)”, for which the “activity of binding to TGF-β, relative value” was 100%.

Still in this test, the particulars now being: relative value with binding of peptide TGFb1_061 (SEQ ID NO: 62) to TGF-β1 set to 100%; HA-tagged peptides, TGF-β1 beads ELISA.
With “68 ({CH2CO}-F[1Nal]VVNV[4Pal]DD[Gly(NCH2CH2Ph)]V[1Nal]YHVCG; thioether N-16; also: HA-tag) [compound 68]”, the “Activity of binding to TGF-β” value stood at 119%.

As to “57 ({CH2CO}-F[1Nal]VVNVQDD[Gly(NCH2CH2Ph)]V[1Nal]YHVCG; thioether N-16; also: HA-tag) [compound 57]”, the “Activity of binding to TGF-β” value turned out to be 90%.

Take “61 ({CH2CO}-F[1Nal]VVNVYKD[Gly(NCH2CH2Ph)]V[1Nal]YHVCG; thioether N-16; also: HA-tag) [compound 61]”: the “Activity of binding to TGF-β” value amounted to 98%.

Turning to “53 ({CH2CO}-F[1Nal]VVNVYDDKV[1Nal]YHVCG; thioether N-16; also: HA-tag) [compound 53]”, the “Activity of binding to TGF-β” value came to 86%.

Regarding “51 ({CH2CO}-F[1Nal]VKNVYDD[Gly(NCH2CH2Ph)]V[1Nal]YHVCG; thioether N-16; also: HA-tag) [compound 51]”, the “Activity of binding to TGF-β” value turned out to be 84%.

For “58 ({CH2CO}-F[1Nal]VVNVYED[Gly(NCH2CH2Ph)]V[1Nal]YHVCG; thioether N-16; also: HA-tag) [compound 58]”, the “Activity of binding to TGF-β” value was 93%.

As to “65 ({CH2CO}-F[1Nal]VVNV[Phe(3-guanidino)]DD[Gly(NCH2CH2Ph)]V[1Nal]YHVCG; thioether N-16; also: HA-tag) [compound 65]”, the “Activity of binding to TGF-β” value was found to be 104%.

Consider “56 ({CH2CO}-FWVVNVYDD[Gly(NCH2CH2Ph)]V[1Nal]YHVCG; thioether N-16; also: HA-tag) [compound 56]”, for which the “Activity of binding to TGF-β” value is given as 90%.

For “55 ({CH2CO}-F[1Nal]VVNVYDD[Gly(NCH2CH2Ph)]V[1Nal]YHECG; thioether N-16; also: HA-tag) [compound 55]”, the “Activity of binding to TGF-β” value was 89%.

Take “62 ({CH2CO}-F[1Nal]VVNVYDD[Gly(NCH2CH2Ph)]V[1Nal]YHVCG; thioether N-16; also: HA-tag) [compound 62]”: the “Activity of binding to TGF-β” value is given as 100%.

Turning to “48 ({CH2CO}-F[1Nal]VVNVEDD[Gly(NCH2CH2Ph)]V[1Nal]YHVCG; thioether N-16; also: HA-tag) [compound 48]”, the “Activity of binding to TGF-β” value is on record as 80%.

“54 ({CH2CO}-F[1Nal]VVNV[Phe(4-guanidino)]DD[Gly(NCH2CH2Ph)]V[1Nal]YHVCG; thioether N-16; also: HA-tag) [compound 54]”: the “Activity of binding to TGF-β” value turned out to be 87%.

Consider “60 ({CH2CO}-F[1Nal]VVNVYDQ[Gly(NCH2CH2Ph)]V[1Nal]YHVCG; thioether N-16; also: HA-tag) [compound 60]”, for which the “Activity of binding to TGF-β” value is listed as 95%.

Turning to “49 ({CH2CO}-F[1Nal]VVNVYDD[Gly(NCH2CH2Ph)]V[1Nal][4Pal]HVCG; thioether N-16; also: HA-tag) [compound 49]”, the “Activity of binding to TGF-β” value is 80%.

In the case of “64 ({CH2CO}-F[1Nal]VVNVYDK[Gly(NCH2CH2Ph)]V[1Nal]YHVCG; thioether N-16; also: HA-tag) [compound 64]”, the “Activity of binding to TGF-β” value is recorded as 102%.

Another test has as its target T1, recombinant human TGF-β1 (R&D systems). As to the kind of experiment: SPR, TGF-β1 immobilised, single cycle kinetics.
Conditions: not given
The method, then:
Subsequently, 50 μL of 60 mM EDC solution (Global Life Science Technologies Japan Co., Ltd.) and 50 μL of 650 mM NHS solution (Global Life Science Technologies Japan Co., Ltd.) were mixed. Next, the reaction was carried out at a flow rate of 10 μL/min for 420 seconds. Then, 150 μL of 0.2 μM TGF-β solution diluted in 10 mM acetic acid solution (pH 5.0) was prepared and reacted at a flow rate of 10 μL/min for 420 seconds to immobilize TGF-β on the CM3 sensor chip. TGF-β was human-derived TGF-β1 or β2 (recombinant human TGF-β1, 2) and was obtained from R&D systems. After immobilization, capping was performed by reacting with 1.0 M ethanolamine aqueous solution (Global Life Science Technologies Japan Co., Ltd.) at a flow rate of […] for 420 seconds.
A liquid prepared by dissolving each peptide at 10 mM in DMSO solution was diluted with running buffer to prepare a peptide-dissolved solution at a final concentration of 10 μM. Subsequently, 50 nM, 25 nM, 12.5 nM, 5 nM, and 2.5 nM peptide solutions were prepared. Using the above samples, the kinetics of each peptide against TGF-β was obtained by SPR measurement.
The kinetics evaluation model was Single Cycle Kinetics, and curve fitting was performed using Biacore T200 Evaluation Software Version 3.0 (Global Life Science Technologies Japan Co., Ltd.). The binding of various peptides to TGF-β was evaluated by performing least-squares curve fitting on the obtained sensorgram to calculate the KD value.
In general terms: Surface plasmon resonance follows binding to a sensor surface in real time, without labels.
With B1, the Kd was 0.58 nM.

For B2, the Kd is 4.64 nM.

Consider {CH2CO}-F[1Nal]VVNVYDD[Gly(NCH2CH2Ph)]V[1Nal]YHVC (thioether N-16, cyclic peptide) [TGFb1_002], for which the Kd stood at 0.46 nM.

For the molecule B3, the Kd amounted to 0.9 nM.

Turning to B4, the Kd was found to be 0.55 nM.

As for B5, the Kd was found to be 1.49 nM.

As to B6, the Kd stood at 1.15 nM.

Regarding B7, the equilibrium dissociation constant (Kd) was determined as 2.7 nM.
